From article PMC4739761, “AMPylation matches BiP activity to client protein load in the endoplasmic reticulum” (eLife, 2015)
Where no end group is shown, it is not given here.

B1: hamster BiP (27-654, with a His6-tag), unmodified (natural protein)
chain: not shown
notes: BiP (GRP78), Chinese hamster (Cricetulus griseus), residues 27-654; numbers count on the precursor with its signal peptide (mature BiP is 19-654); also called wildtype (wt) BiP; GRP78; source: E. coli M15, purified (Ni-NTA); unmodified BiP from mock in vitro AMPylation reactions without enzyme served as control in the functional assays; not shown: His6, N-terminal, kept
B2: lucifer yellow-labeled BiP substrate peptide (HTFPAVLGSC) (peptide)
peptide: HTFPAVLGSC
modifications: also: lucifer yellow label, position not given here
notes: well-characterized BiP substrate peptide; also called LY-labeled substrate peptide; fluorescently-labeled substrate peptide
B3: hamster BiP (27-654, with a His6-tag) AMPylated in vitro to completion on Thr518 (natural protein)
chain: not shown
modifications: AMPylated threonine at 518 (single AMP)
notes: BiP (GRP78), Chinese hamster (Cricetulus griseus), residues 27-654; numbers count on the precursor with its signal peptide (mature BiP is 19-654); also called BiP-AMP; AMPylated BiP; source: E. coli M15, purified (Ni-NTA); not shown: His6, N-terminal, kept

Key:
Conditions in all cases: both partners purified
[1] = molecular target: B2; assay: fluorescence polarisation; competitive dissociation: pre-formed complex of BiP or BiP-AMP (40 µM) and LY-labeled peptide (1 µM) in 1 mM ADP, 400-fold excess (0.4 mM) of unlabeled peptide added at t = 0; single phase decay fit of the first 60 min
[2] = molecular target: B3; assay: as above
[3] = molecular target: B1; assay: as above
[4] = molecular target: B3; assay: fluorescence polarisation; steady state: 1 µM lucifer yellow-labeled peptide with BiP or BiP-AMP at 0-40 µM, 1 mM ADP, 24 hr at 30°C, FP buffer (37.5 mM HEPES-KOH pH 7.4, 125 mM KCl, 7 mM MgCl2, 0.5 mM CaCl2, 125 mM imidazole, 0.05% Triton X-100); read at room temperature
[5] = molecular target: B1; assay: as above

B1
half-life (t1/2) of the complex [1]: 19.3 min

B2
koff [2]: 0.00353 s⁻¹
koff [3]: 0.000617 s⁻¹
Kd [4]: 11.5 µM
Kd [5]: 16.7 µM

HTFPAVL (also called unlabeled peptide) [unlabeled substrate peptide (HTFPAVL)]
binding result [2]: binds
binding result [3]: binds

B3
half-life (t1/2) of the complex [1]: 3.3 min
